Where a chain is given by its changes, count along the chain named.
B1: LMJ1.2C (VHH)
VHH: QVQLVETGGGLVQAGGSLRLSCAASGSTFSHSAGGWYRQAPEKQRELVAGIRSDGNINYADSVKDRFTISRDNASNTMYLQMNNLKPEDTAVYVCNIRGSYGNTYYSRWGQGTQVTVSS
modifications: sortase-tagged with biotin in the Western blots ; Purified by a his-tag for BLI and sortase-tagged with biotin in the Western blots. The tag letters are not stated for the free nanobody, so they are left out.
notes: First round of yeast display; Expressed in E. coli, his-tag purified
B2: LMJ2.5H (VHH)
VHH: B1 VHH with A24V
modifications: sortase-tagged with biotin in the Western blots ; Western blots used the nanobody sortase-tagged with biotin at a terminus. The BLI material was his-tag purified. Tag letters are not stated for the stand-alone nanobody and are left out.
notes: Second round of yeast display; Expressed in E. coli, his-tag purified
B3: LMJ2.5J (VHH)
VHH: B1 VHH with G8R, A24V, R52G, D54A
modifications: sortase-tagged with biotin in the Western blots ; Western blots used the nanobody sortase-tagged with biotin at a terminus. The BLI material was his-tag purified. Tag letters are not stated for the stand-alone nanobody and are left out.
notes: as for B2
B4: LMJ2.5C (VHH)
VHH: B1 VHH with I51V, T113I
modifications: sortase-tagged with biotin in the Western blots ; Purified by a his-tag for BLI and sortase-tagged with biotin in the Western blots. The tag letters are not stated for the free nanobody, so they are left out.
notes: as for B2
B5: LMJ2.5I (VHH)
VHH: B1 VHH with Q1R, A24V, T113A
modifications: sortase-tagged with biotin in the Western blots ; Purified by a his-tag for BLI and sortase-tagged with biotin in the Western blots. The tag letters are not stated for the free nanobody, so they are left out.
notes: as for B2
B6: LMJ2.6A (VHH)
VHH: B1 VHH with Q1R, A24V, S27R, E88G
modifications: sortase-tagged with biotin in the Western blots ; Purified by a his-tag for BLI and sortase-tagged with biotin in the Western blots. The tag letters are not stated for the free nanobody, so they are left out.
notes: as for B2
B7: LMJ1.3J (VHH)
VHH: B1 VHH with E6G, R52S, D54A
modifications: sortase-tagged with biotin in the Western blots ; Purified by a his-tag for BLI and sortase-tagged with biotin in the Western blots. The tag letters are not stated for the free nanobody, so they are left out.
notes: as for B1
B8: LMJ1.2G (VHH)
VHH: B1 VHH with R52G
modifications: sortase-tagged with biotin in the Western blots ; Purified by a his-tag for BLI and sortase-tagged with biotin in the Western blots. The tag letters are not stated for the free nanobody, so they are left out.
notes: as for B1
B9: LMJ2.5G (VHH)
VHH: B1 VHH with G8E
modifications: sortase-tagged with biotin in the Western blots ; Western blots used the nanobody sortase-tagged with biotin at a terminus. The BLI material was his-tag purified. Tag letters are not stated for the stand-alone nanobody and are left out.
notes: as for B2
B10: LMJ2.4C (VHH)
VHH: B1 VHH with T7A, T113I
modifications: sortase-tagged with biotin in the Western blots ; Purified by a his-tag for BLI and sortase-tagged with biotin in the Western blots. The tag letters are not stated for the free nanobody, so they are left out.
notes: as for B2

Biological target: human plasma fibronectin (human, UniProt P02751-8 32-2296, limits assumed)
Sequence (P02751 other isoform, or with tags, fused parts or gaps limits assumed): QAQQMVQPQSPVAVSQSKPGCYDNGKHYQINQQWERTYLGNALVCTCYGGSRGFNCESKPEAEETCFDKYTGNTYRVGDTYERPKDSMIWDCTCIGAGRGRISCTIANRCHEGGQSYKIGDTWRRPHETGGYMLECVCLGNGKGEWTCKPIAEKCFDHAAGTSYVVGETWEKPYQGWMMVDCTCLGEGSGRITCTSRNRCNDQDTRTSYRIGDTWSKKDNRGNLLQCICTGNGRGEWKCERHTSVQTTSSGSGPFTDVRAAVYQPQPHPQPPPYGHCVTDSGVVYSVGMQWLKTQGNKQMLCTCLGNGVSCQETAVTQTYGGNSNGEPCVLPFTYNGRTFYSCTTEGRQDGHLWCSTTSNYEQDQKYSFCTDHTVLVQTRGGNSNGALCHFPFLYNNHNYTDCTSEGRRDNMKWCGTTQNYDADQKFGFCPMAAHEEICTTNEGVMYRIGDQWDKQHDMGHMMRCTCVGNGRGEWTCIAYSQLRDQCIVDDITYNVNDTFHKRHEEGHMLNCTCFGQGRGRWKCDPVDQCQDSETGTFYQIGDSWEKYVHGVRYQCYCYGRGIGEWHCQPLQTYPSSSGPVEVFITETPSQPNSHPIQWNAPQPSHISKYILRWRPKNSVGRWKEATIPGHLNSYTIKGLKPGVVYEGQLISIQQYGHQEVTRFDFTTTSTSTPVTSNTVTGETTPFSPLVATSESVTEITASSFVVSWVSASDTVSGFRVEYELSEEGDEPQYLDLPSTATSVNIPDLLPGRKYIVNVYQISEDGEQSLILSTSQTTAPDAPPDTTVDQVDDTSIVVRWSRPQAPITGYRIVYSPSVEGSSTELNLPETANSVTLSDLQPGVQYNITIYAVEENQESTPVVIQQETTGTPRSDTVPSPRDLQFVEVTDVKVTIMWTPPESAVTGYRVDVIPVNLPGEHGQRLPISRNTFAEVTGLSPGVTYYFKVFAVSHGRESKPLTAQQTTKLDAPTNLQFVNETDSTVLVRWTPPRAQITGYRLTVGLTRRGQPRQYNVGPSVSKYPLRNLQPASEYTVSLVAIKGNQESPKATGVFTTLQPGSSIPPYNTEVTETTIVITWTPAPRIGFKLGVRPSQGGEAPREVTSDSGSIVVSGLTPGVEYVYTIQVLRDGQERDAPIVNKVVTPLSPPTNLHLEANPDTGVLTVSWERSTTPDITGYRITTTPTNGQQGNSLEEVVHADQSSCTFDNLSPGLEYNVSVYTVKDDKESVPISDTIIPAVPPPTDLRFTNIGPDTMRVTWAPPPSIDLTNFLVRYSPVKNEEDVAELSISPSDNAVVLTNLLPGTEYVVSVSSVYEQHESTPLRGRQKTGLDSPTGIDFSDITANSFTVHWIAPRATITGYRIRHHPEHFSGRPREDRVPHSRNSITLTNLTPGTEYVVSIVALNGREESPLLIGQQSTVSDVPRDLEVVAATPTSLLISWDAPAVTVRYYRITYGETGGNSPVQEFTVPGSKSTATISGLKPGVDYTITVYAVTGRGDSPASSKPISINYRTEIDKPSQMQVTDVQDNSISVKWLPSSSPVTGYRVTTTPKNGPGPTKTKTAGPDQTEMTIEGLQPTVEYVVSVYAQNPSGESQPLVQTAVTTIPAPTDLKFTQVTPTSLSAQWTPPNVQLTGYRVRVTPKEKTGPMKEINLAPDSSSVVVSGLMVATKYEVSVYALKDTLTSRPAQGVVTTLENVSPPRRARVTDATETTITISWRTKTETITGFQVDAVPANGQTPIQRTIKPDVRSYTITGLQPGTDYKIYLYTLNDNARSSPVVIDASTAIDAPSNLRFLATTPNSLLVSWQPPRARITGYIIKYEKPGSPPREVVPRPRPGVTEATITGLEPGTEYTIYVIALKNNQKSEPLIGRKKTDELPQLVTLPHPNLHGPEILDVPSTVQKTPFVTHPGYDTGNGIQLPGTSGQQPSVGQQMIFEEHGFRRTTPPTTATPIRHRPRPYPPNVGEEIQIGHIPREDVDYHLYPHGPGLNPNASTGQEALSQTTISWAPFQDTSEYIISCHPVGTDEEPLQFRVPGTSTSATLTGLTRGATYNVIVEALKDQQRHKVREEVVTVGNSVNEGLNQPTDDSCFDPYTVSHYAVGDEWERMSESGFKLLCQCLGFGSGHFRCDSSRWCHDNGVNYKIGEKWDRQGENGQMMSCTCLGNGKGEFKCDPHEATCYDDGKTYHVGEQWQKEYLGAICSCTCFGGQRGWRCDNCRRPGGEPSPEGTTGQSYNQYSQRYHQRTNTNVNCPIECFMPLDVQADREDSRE
Assay: Western blot, biotin-tagged nanobody

Binder	binding result
B1	no binding
B2	no binding
B3	no binding
B4	no binding
B5	no binding
B6	no binding
B7	no binding
B8	no binding
B9	no binding
B10	no binding
